Experimental findings from patent US20110091460A1 (REGENTS OF THE UNIVERSITY OF MINNESOTA, published 2011) are described below.

For this assay, the target named is epidermal growth factor receptor (EGFR) (human, UniProt P00533 25-1210). The assay can be described thus: cell-based or functional assay.

B1: EGF4 KDEL (ligand)
chain: MNSDSECPLSHDGYCLHDGVCMYIEALDKYACNCVVGYIGERCQYRDLKWWELRPSGQAGAAASESLFVSNHAYMGLTSQLLPPLFFLLACAGNFVHGHKCDITLQEIIKTLNSLTEQKTLCTELTVTDIFAASKNTTEKETFCRAATVLRQFYSHHEKDTRCLGATAQQFHRHKQLIRFLKRLDRNLWGLAGLNSCPVKEANQSTLENFLERLKTIMREKYSKCSSEASGGPEPEGGSLAALTAHQACHLPLETFTRHRQPRGWEQLEQCGYPVQRLVALYLAARLSWNQVDQVIRNALASPGSGGDLGEAIREQPEQARLALTLAAAESERFVRQGTGNDEAGAANADVVSLTCPVAAGECAGPADSGDALLERNYPTGAEFLGDGGDVSFSTRGTQNWTVERLLQAHRQLEERGYVFVGYHGTFLEAAQSIVFGGVRARSQDLDAIWRGFYIAGDPALAYGYAQDQEPDARGRIRNGALLRVYVPRSSLPGFYRTSLTLAAPEAAGEVERLIGHPLPLRLDAITGPEEEGGRLETILGWPLAERTVVIPSAIPTDPRNVGGDLDPSSIPDKEQAISALPDYASQPGKPPKDEL
For the molecule B1, the “IC50, killing of MDA-MB-231 cells (3H-thymidine uptake assay)” value was found to be 2 pM.
